In the DeepSol protein solubility set:

Assay: soluble on expression in E. coli; label from the status in PepcDB or PDB records

Soluble on expression in E. coli, not soluble:
MGSDKIHHHHHHMLSTGLYEDFPTLKMKINGKRIVYLDSAATTLKPKQVVKKLEEFYYNSYANVHRAVHTLAVRATTEFEETREEFAEFLGASPEEIIFTSGTTMAINLAVVSLLRSGILKEDDLVLVSLLEHHANFVPWLRLSKFHGYRIDFIRPSGRFGTLEMDDLLKHRDKNPKVVAITGLSNVTGQRIPVEELRNVFPNSIILLDGAQLIPHEPVKPKEIGVDFLAFSLHKMLGPTGVGVLYGKREVLEQMEPFLYGGEMIDRVSLEDVTFNELPYKFEAGTPNIADIVASREALRYLKETGFDSVHEKIEQLTQMALKEMMKIGGVEIYGPLDERQHGIVSFNVKGIHPHDVAHILDQEFGIAVRSGHHCAQPLMSILKEQSQIDFPNSTCRASFYIYNTEEDVKILVEGVKKVKEWFSR
MGSDKIHHHHHHMLSYYGRLSSEVYDIDKPIDHSFRDVEFYIDRLNLCRGHILEPATGTGRVLVPLLEKGFKVDGFDSSKDMLNICRDNCRKKGLNPKLFEAKMESFIQDTRYDAIIVPAGTFLLLHQRADSIRALQNFHKHLCTGGRLIIDILMQTDFSTGTVSTRTWVCSNGDLITLESKVVEVDYINQYTVSHNRYEKWREGVLIQTELERFPLRWYGLEEFKLILESTGFKDIVISSDYKFGQYPSNVKDVITFEAVAIN
MGSDKIHHHHHHMLTLLSYHQKVLDHFKHQTKTWDFFTASQNKDEQLNQYKTELLKNTYKFDPEKDTSIYEKVAKSKQVLGLDINVYVYQAQYSDELNASVGFVNNEAHIVFSGQIIQLLDDDELLTVIAHELSHIKLYTMQGGDPEVAARIITAISNNYDSESSYMETARLFRLYTEIFCDRGAYEVQGSTGPVITSLVKTATGLKQVNAESYIKQAEEIFSADQQLKAASISHPENFIRARAIHLWHEKKEAAEEEIIRMIEGVTDIDALDIFKQKELAACTRQFLQLYLKPNWFRSTLVVSQAKQYFVDFSWDDKIILEETFITRMEKAHESVKNYFSYVLLDFALLDSTLEEIPFGWAFQFAEDIDIKETFDAVVKKELNLSDKKLQQHKQKTLSAFYNVKEGDGEQIYEG
MGSDKIHHHHHHMLTRLELAKDWVRDAGNFLKENIAAPLEITEKTRYDDLVTNFDKEVQEQIVANILHHFPEDKILAEEDEEKIKFDSEIPHLWVLDPIDGTTNFIVQKDNFAVMLAYYEYGVGKFGLILDVMKDKLYWCDSHKAFCNQKELELKERPLAQSLLGVNSYMYRSNSGGLLDLSHQTLGVRIIGSAGISYGQLLEGKIIGYFSSLQPWDYAAGSIIAERIGYVTLTISGESPHFNCRERVFTAPSYLISEIQKYIKK
MGSDKIHHHHHHMLYDVAIIGGGPSGAAAAEILARAGHSTILIERNLANVKPCGGAIPLGLIEEFDIPDELVEKKLTRMSVRSPKGETIFMHMPNGYVGMVRRERFDRYLREKAQKAGAEVVEALVKKIERSVDRFTLQLFNKEGEALPPVEASYVIGADGANSKTADELGFPPNDLKVIAMQQRFHYCDELKPYEELVEIWFDGEVSPDFYGWIFPKTDHIAIGTGTEEHRNDIKQLQHRFVEKIGIAEKPYLNEAAKIPMKPRRSFTQERAILVGDAAGLVTPANGEGIFFAMRSGKLGAEAMIERIRNNTPLSSYEKKFRKLYSPIFFGLQVLQSVYYKSDRLRESFVAICRDKDVQGITFDSYLYKKMVPAPWSVQMKIMAKNIYHLAKGS
MGSDKIHHHHHHMMAVAHKGEAQFDFYWRQQGEWVEEPNQRRGGESGVQRLNDADGKLLYAKRQVGHIYRSLLHPFGRPTVLRELDALNSFEQLGVRVPRIVFCGAQRDAEHQWRALLVSEALDGFVELDTWHAEGARERYPQVVHERMLKDLADNLARMHLGHWQHGCLYGKHVFIKVIGEGEQARVEVALLDLEKCRRRISCQRAAGNDLRQLRRHSSLNDAEWRTLLYFYKMAFGSAVKGLE
MGSDKIHHHHHHMMFKQVQQDFMDYIRDPNQPLPKGIEPRRMKIYRDLFFNNLDGFVSSAFPVLKSLYASDDWQLLVQAFFVNHDCQSPIFMDIAAEFLQFLQTEYQTKESDPGFMLELAHYEWLELVVAVAQEDEQLMTLSQDEVKTAKMCLNSTARVAQYHFDVQHISVDYQPVEPTPQGQFFCVYRDNADEVAFLQLSPLSAQVLAYLEQSQQSTLLELCHWLAGLYPNMATEQLNQGAFGLLAQLADKGIVKTRA
MGSDKIHHHHHHMMISLYSAATGMSAQQFKLDTIANNLANVDTTGYKKVRAEFQDLLYQYVKNAGTPTAATSSLPTGLYVGHGVRTAATTRIFTLGNFEQTGNALDLAIAGDGFFQIQLQDGRIAYTRDGSFKMDSEGRIVTSNGLLLVPEITIPENAVSINVSPDGIVSAELQDGTIQELGTITLVRFVNPSGLKSIGDNLYIATPASGDPIEGVPGQDGFGAIKQGFLEKSNVDVVREMVDMITAQRAYEFNSRVIQTADEMLRTATNVKR
MGSDKIHHHHHHMMKLTALVDNTRLDSRPELAVERGLSFHVETMGSQILFDTGSSSTFCENAALMNISIQDVDLAVISHRHHDHCNGTTHFIERNSKAKIYLKDCEDKNYLFKAFGFKNDVGINKELLKNASERLIFVEHTTEILPNIFIITEISDKYEKPKGNRYLYTQSENGYKNDTFDHELLLVVKESDGLIVFTGCAHSGVLNMVETAIELFPNHRIKAVVGGFHLVGLPLLNSIGGTKQDIQAIGQALSHYPIDKLYTGHCTGMKAFGLLKEVLGDRLEHLPTGRSVLI
MGSDKIHHHHHHMMKRVLIKPLEPLMFRSQGEFEPLITGSHTAAQSLIIPRPSTIAGMLGYILFNKSSGTGDWLSDLTNLLDTIYGTFIETNGEYLFPLRMGNHLALVDQQHLINLPILLEKEYEQREKGIYELFYDKNKLFQIINHQDRIGISIDKSTRTVKEHYLYSARYLAFKKEVNYVIFIDNDAISDKINGKIVNFGGENRIAKLEVDDYKVDTSIEEEYYLTLSPILIPDEALDDLLDNISDYVTMGKVDKISLGFDIANTKRKEMLTAILEGSIVKRSIIDFIKKEINNNLLDRFTKYEKIGYNTLMNLCKLAFRKILS
MGSDKIHHHHHHMMPIRRPFGRGPAVSLFTLGTMRAIGSAEQMYGVVKAAQAAGINHIETSPAYGPAESFLGTALRQLQQKQAEPSGGWVITSKLLPGLSLKEGQCELHNLLARLGRPKLENLAVHGLNRPEHLEWALSGDGAALLRWAEEEDLVVQVGFTSHGSFPLIKEALASGRFQFCSLHLHLLDPERIPLAREALASGMGVMAISPADKGGRLQDPSPTLVEDCSPLSPLQLAYRFLLAAKISTLSLGAAQPEDLTLAAQLANADGPLNQREQRALNQLRQQGERRLGENRCGQCKACLPCPKSVPIPDLLRLRNLAVGHNLQAFTEERYNLIGRAGHWWEGIDGSACERCGECLPRCPHHLPIPDLLADTHQRLAAAPRRRLWG
MGSDKIHHHHHHMMSNTAATVNHSQKVDLFIVGGGMIGSALAARLAPSGMRIALLENHQPAAFDPSSPPDLRVSALSPASIDFLEQAQAWPAIQTMRTAPFKRMQVWENRQDHGTMFDAAEVDAPWLGHIVENRLVQLACLEIVEGYDNVTLLCPGEIGQIAYRPEGSHIRLNSGQIFEATLLIGADGANSQVRKAAGIALDSQQYPMHALVATVAIQGGERDITWQRFTPDGPQSLLPLPGDYASLVWYHRPSEVRRLLTLDDDALLDAFRQHFPAVLPEITGLVRRGSFPLARSHAQAYVRPGVALIGDAAHTIHPLAGQGVNLGFQDAAVLSETLLRAWQTGADLAALPHLQRYERQRKLANLVMQRAMDAFSYGFSNDVAPLRLLRNLGLRFADHTGPIKRQVIRYALGLGPQPSLPLPSGLSKLLP
MGSDKIHHHHHHMMTEMQQRAQLHRQIWKIADEVRGAVDGWDFKQYVLGTLFYRFISENFTDYMQAGDSSIDYAAMPDSIITPEIKDDAVKVKGYFIYPGQLFCNIAAEAHQNEELNTKLKEIFTAIESSASGYPSEQGIKGLFDDFDTTSSRLGSTVADKNKRLAAVLKGVAELDFGNFEDHRIDLFGDAYEYLISNYAANAGKSGGEFFTPQSVSKLIARLAVHGQEKVNKIYDPACGSGSLLLQAKKQFDEHIIEEGFFGQEINHTTYNLARMNMFLHNVNYNKFHIELGDTLTNPKLKDSKPFDAVVSNPPYSIDWIGSDDPTLINDDRFAPAGVLAPKSKADFAFILHALNYLSGRGRAAIVSFPGIFYRGGAEQKIRQYLVEGNYVETVIALAPNLFYGTCIAVNILVLSKHKDNTDIQFIDASGFFKKETNNNVLTEEHIAEIVKLFADKADVPHIAQNAAQQTVKDNGYNLAVSSYVEAEDTREVIDIRQLNAEISETVAKIERLRREIDEVIAEIET
MGSDKIHHHHHHMMVPHLTTALTGPLLTLEKRLLDNMPRIEHWFRSQWQEYGAPFYASVDLRNAGFKLAPVDTNLFPGGFNNLNPDFLPLCIQAAMVAVEKICPDARRLLLIPENHTRNTFYLRNVHALTHILRQAGLEVRIGSIAPEITAPTFLETHDGHSILLEPVRRKANRLELDNFDSCAILLNNDLSGGIPDILQGLEQSLIPPLHAGWATRRKSNHFTAYDRVVEEFAPLIDIDPWLLNPYFDTCGGLDFHARLGEEQLAEKVDSLLAKIRRKYAEYGVKQEPFVIVKADAGTYGMGIMTVKSADDVRDLNRKQRNKMSVVKEGLKVSEVILQEGVYTFEHLKDAVAEPVIYMMDHFVVGGFYRVHTSRGADENLNAPGMHFEPLTFETPCSTPDCAGAPDAAPNRFYAYGVVARLALLAATIELQETDPDLLDERT
MGSDKIHHHHHHMNAPFVPSRVVARLADPGERPAVARFLDAHPDATVFHRAAWLDAVEQSTGHRTHVLVSGQDEAIRAVLPLHEVHSPLFGRALVSTGFGVGGGVVGKGDAALFAAAQELAVRLNCPTVELRGGPLPQGDGWHVKTDSHAGFVTPLAADDEAQLLAIPRKQRAEVRRGLGYGMEVRTGRSPEDRAMHHAVYAQSVRNLGTPVFPRRLFDAVLDGFGDDADILTVLHEGRPLASVLSLYHRGAVMPYWGGGTFEARAMRANDVMYYALMNHARARGCDRFDFGRSKVDSGAYHFKRNWGFAPQPLSYAHWTADGQAPRDVNPLSPRYRARIALWQKLPLAVANRLGPIIANGLA
MGSDKIHHHHHHMNEDLFYDRLHQRCPGKYLLEELETSKSNDVLHASRFVCEMELVQKTNAYYCKTIVKMLLDHEWIFAKAFTIVNDGEDEIEIYDYLYEKYIKLLSTGKPDPMMKDVVRYRFDEDVKITIEETPNLISAASTTGFRTWEAALYMGDFLIHKPLQELAPVQGQDDGKKKLNVLEVGAGTGIVSLVILQKYHEFVNKMYVTDGDSNLVETQLKRNFELNNEVRENEPDIKLQRLWWGSDRVPEDIDLVVGADVTYDPTILPDLCECLAECLALDRCKLCLLSATIRSESTVQLFSQECNKLGLKCTIVTSTEYDANNEIRAMKALQFKPLIAPIRIYKITKQ
MGSDKIHHHHHHMNFSTTEIQTIFNANEAASAVLNQALEAAAQGTFAVGGMIVDNQTGNVICAMHNNVLKPLFGSSQNFTFDPTAHGERQLVYWYYANRHQLNLPDPEYLTIITTLDPCAMCAGTLLTAGFNVGVIAIDDFAGINYNQTFNFDTLPPDLRPLAKRKFGYYACGIKGVDPDIYVRGYVGGPNVAFKDSVVSVQNLTGCNNVFQANVEAVRNNSSNSGKAPQELFDPAALPDDAPVKLRYRELYADAFRLKIDNPRLPDKNLLDLLLYVKGSNPTAQNAVALLDPFGNVVLCMPDTFENSPVETAFMNVTQAYAITRYQLMNDPFARAQAYDYLTHPKYGTFVFLNAPNPADARTIMTLGAYGSTMEGPVPQIFPSNFQYYFLPQYGTEREFRLDIMNLPPFYTQLAQLSAMQVANY
